From patent US20220177587A1, “METHODS AND USES OF VARIANT CD80 FUSION PROTEINS AND RELATED CONSTRUCTS” (Alpine Immune Sciences, Inc., priority 2018, published 2022)

B1: R29D, Y31L, Q33H, K36G, M38I, T41A, M43R, M47T, E81V, L85R, K89N, A91T, F92P, K93V, R94L, S129L, H188D (protein)
chain: VIHVTKEVKEVATLSCGHNVSVEELAQTDILWHKEGKIVLAMRSGDTNIWPEYKNRTIFDITNNLSIVILALRPSDEGTYVCVVRKYENDTPVLEHLAEVTLSVKADFPTPSISDFEIPTSNIRRIICLTSGGFPEPHLSWLENGEELNAINTTVSQDPETELYAVSSKLDFNMTTNHSFMCLIKYGDLRVNQTFNWNTTKQEHFPDN
B2: H18L, R29D, Y31L, Q33H, K36G, M38I, T41A, M43R, M47T, P74L, Y80N, E81V, L85R, K89N, A91T, F92P, K93V, R94L, L97R (protein)
chain: VIHVTKEVKEVATLSCGLNVSVEELAQTDILWHKEGKIVLAMRSGDTNIWPEYKNRTIFDITNNLSIVILALRLSDEGTNVCVVRKYENDTPVLEHRAEVTLSVKADFPTPSISDFEIPTSNIRRIICSTSGGFPEPHLSWLENGEELNAINTTVSQDPETELYAVSSKLDFNMTTNHSFMCLIKYGHLRVNQTFNWNTTKQEHFPDN
B3: H18L, R29D, Y31L, Q33H, K36G, M38I, T41A, M43R, M47T, E81V, L85R, K89N, A91T, F92P, K93V, R94L, I118V, T120S, I127T, T130A, H188D (protein)
chain: VIHVTKEVKEVATLSCGLNVSVEELAQTDILWHKEGKIVLAMRSGDTNIWPEYKNRTIFDITNNLSIVILALRPSDEGTYVCVVRKYENDTPVLEHLAEVTLSVKADFPTPSISDFEVPSSNIRRITCSASGGFPEPHLSWLENGEELNAINTTVSQDPETELYAVSSKLDFNMTTNHSFMCLIKYGDLRVNQTFNWNTTKQEHFPDN
B4: S21P, R29D, Y31L, Q33H, K36G, M38I, T41A, M43R, M47T, N48I, V68A, E81V, L85R, K89N, A91T, F92P, K93V, R94L,P109H, I126L, K169I (protein)
chain: VIHVTKEVKEVATLSCGHNVPVEELAQTDILWHKEGKIVLAMRSGDTIIWPEYKNRTIFDITNNLSIAILALRPSDEGTYVCVVRKYENDTPVLEHLAEVTLSVKADFHTPSISDFEIPTSNIRRLICSTSGGFPEPHLSWLENGEELNAINTTVSQDPETELYAVSSILDFNMTTNHSFMCLIKYGHLRVNQTFNWNTTKQEHFPDN
B5: Y53C/L70Q/D90G/T130A/N149D/N152T/H188D (protein)
chain: VIHVTKEVKEVATLSCGHNVSVEELAQTRIYWQKEKKMVLTMMSGDMNIWPECKNRTIFDITNNLSIVIQALRPSDEGTYECVVLKYEKGAFKREHLAEVTLSVKADFPTPSISDFEIPTSNIRRIICSASGGFPEPHLSWLENGEELDAITTTVSQDPETELYAVSSKLDFNMTTNHSFMCLIKYGDLRVNQTFNWNTTKQEHFPDN
B6: K89E, K93E, T130A (protein)
chain: VIHVTKEVKEVATLSCGHNVSVEELAQTRIYWQKEKKMVLTMMSGDMNIWPEYKNRTIFDITNNLSIVILALRPSDEGTYECVVLKYEEDAFEREHLAEVTLSVKADFPTPSISDFEIPTSNIRRIICSASGGFPEPHLSWLENGEELNAINTTVSQDPETELYAVSSKLDFNMTTNHSFMCLIKYGHLRVNQTFNWNTTKQEHFPDN
modifications: CD80 v91 ECD

test system: human pan T cells; assay: Anti-CD3 coimmobilization assay, IFN-gamma; type: cell-based; conditions: Table E34; culture supernatant, 3 days
Procedure: Costimulatory bioactivity of CD80 fusion variants was determined in anti-CD3 coimmobilization assays. 1 nM or 4 nM mouse anti-human CD3 (OKT3, Biolegends, USA) was diluted in PBS with 1 nM to 80 nM rCD80.Fc variant proteins. This mixture was added to tissue culture treated flat bottom 96-well plates (Corning, USA) overnight to facilitate adherence of the stimulatory proteins to the wells of the plate. The next day, unbound protein was washed off the plates and 100,000 purified human pan T cells (BenTech Bio, US) or human T cell clone BC3 (Astarte Biologics, USA) were added to each well in a final volume of 200 μl of Ex-Vivo 15 media (Lonza, Switzerland). Cells were cultured 3 days before harvesting culture supernatants and measuring human IFN-gamma levels with Duoset ELISA kit (R&D Systems, USA) as described above.

First: B1
Second: B2
The “Anti-CD3 IFN-gamma Coimmobilization Assay” value of the first is 4.8-fold higher: 87 pg/mL for the first, 18 pg/mL for the second.

B3 and B4 are within 1.5-fold of each other in “Anti-CD3 IFN-gamma Coimmobilization Assay” value: 108 pg/mL for the first, 137 pg/mL for the second.

Going from B5 to B6, the “Anti-CD3 IFN-gamma Coimmobilization Assay” value rises from 122 pg/mL to 571 pg/mL (4.7-fold).
